Key:
cryo-EM structure = target: the molecule itself; test: cryo-EM structure
calmodulin = calmodulin (UniProt P0DP23 1-149); test: cryo-EM structure

B1: Truncated rat Eag1 (rEag1Δ; Kv10.1 with residues 773-886 removed) (natural protein, UniProt Q63472 1-962, looked up)
chain: MTMAGGRRGLVAPQNTFLENIVRRSNDTNFVLGNAQIVDWPIVYSNDGFCKLSGYHRAEVMQKSSACSFMYGELTDKDTVEKVRQTFENYEMNSFEILMYKKNRTPVWFFVKIAPIRNEQDKVVLFLCTFSDITAFKQPIEDDSCKGWGKFARLTRALTSSRGVLQQLAPSVQKGENVHKHSRLAEVLQLGSDILPQYKQEAPKTPPHIILHYCVFKTTWDWIILILTFYTAILVPYNVSFKTRQNNVAWLVVDSIVDVIFLVDIVLNFHTTFVGPAGEVISDPKLIRMNYLKTWFVIDLLSCLPYDVINAFENVDEGISSLFSSLKVVRLLRLGRVARKLDHYIEYGAAVLVLLVCVFGLAAHWMACIWYSIGDYEIFDEDTKTIRNNSWLYQLALDIGTPYQFNGSGSGKWEGGPSKNSVYISSLYFTMTSLTSVGFGNIAPSTDIEKIFAVAIMMIGSLLYATIFGNVTTIFQQMYANTNRYHEMLNSVRDFLKLYQVPKGLSERVMDYIVSTWSMSRGIDTEKVLQICPKDMRADICVHLNRKVFKEHPAFRLASDGCLRALAMEFQTVHCAPGDLIYHAGESVDSLCFVVSGSLEVIQDDEVVAILGKGDVFGDVFWKEATLAQSCANVRALTYCDLHVIKRDALQKVLEFYTAFSHSFSRNLILTYNLRKRIVFRKISDVKREEEERMKRKNEAPLILPPDHPVRRLFQRFRQQKEARLAAERGGRDLDDLDVEKGNALTDHTSANHSLVKASVVTVRESPATPVSFYPIPEQTLQATVLEVKHELKEDIKALNAKMTSIEKQLSEILRILMSRGSSQSPQDTCEVSRPQSPESDRDIFGAS
modifications: N-acetyl glucosamine on N388 (density observed); glycosylation sites N388 and N406
cryo-EM structure
  stoichiometry N: 4
calmodulin
  binding result: binds

Source: paper PMC5477842 (Science (New York, N.Y.), 2016)
